Test results: patent US20230295310A1

Biological target: human CD3 expressed on cells (human) (UniProt P07766)
Assay: flow cytometry, 25 nM

human CD3 expressed on cells (human), sequence (P07766 23-207, chain 1 of 3): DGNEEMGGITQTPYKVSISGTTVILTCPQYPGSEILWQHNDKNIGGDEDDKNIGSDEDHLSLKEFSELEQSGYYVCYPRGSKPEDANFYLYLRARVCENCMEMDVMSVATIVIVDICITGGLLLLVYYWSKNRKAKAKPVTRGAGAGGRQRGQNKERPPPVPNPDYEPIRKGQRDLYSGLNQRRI
human CD3 expressed on cells (human), sequence (P04234 22-171, chain 2 of 3, further chain): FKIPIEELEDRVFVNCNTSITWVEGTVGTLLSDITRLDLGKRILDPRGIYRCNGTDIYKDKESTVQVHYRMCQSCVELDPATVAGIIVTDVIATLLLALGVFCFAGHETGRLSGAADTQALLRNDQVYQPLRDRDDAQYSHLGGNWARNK
human CD3 expressed on cells (human), sequence (P09693 23-182, chain 3 of 3, further chain): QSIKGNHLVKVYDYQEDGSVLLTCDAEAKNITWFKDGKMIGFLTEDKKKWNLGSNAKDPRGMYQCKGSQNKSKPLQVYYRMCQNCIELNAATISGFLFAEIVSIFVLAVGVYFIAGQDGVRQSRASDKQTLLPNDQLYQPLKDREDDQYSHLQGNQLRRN

B1: mAb 109 (antibody, V domains shown)
VH: QVQLVESGGGVVQPGRSLRLSCVASGFPFRSYGMHWVRQAPGKGLEWVAFIWYDGSNKYYADSVRGRFTISRDNFKKMVYLQMNSLRAEDTAVYYCARDLAGIYAFDVWGQGTVVTVSS
VL: EIVMTQSPATLSVSPGERATLSCRASQSVSSNLAWYQQKPGQAPRLLIYGASTRATGIPARFSGSGSGTEFTLTVSSLQSEDFAIYYCQQYNNWRPLTFGGGTKVEIK
For B1, which Human primary T Cell Binding (FOI) is on record?
Its Human primary T Cell Binding (FOI) is 1.4 FOI.
